# Key:
# [1] = molecular target: AVE018 coat protein (ssRNA phage AVE018 (metagenomic sequence)); test: non-reducing SDS-PAGE; purified VLPs in 20 mM Tris-HCl pH 8.0, 50% glycerol mixed with Laemmli buffer with or without 5% 2-mercaptoethanol, 10 min at 95 °C, 15% gel; disulfide-linked CP oligomers
# [2] = molecular target: NFZC01007443 coat protein (ssRNA phage NFZC01007443 (metagenomic sequence)); test: as above
stoichiometry N [1],stoichiometry N [2],Substance
2,–,AVE018 coat protein (natural protein)
–,5,NFZC01007443 coat protein (natural protein)

# From publication PMC6513524, “Production and characterization of novel ssRNA bacteriophage virus-like particles from metagenomic sequencing data” (Journal of Nanobiotechnology, 2019)
